In test [1] the target is protease domain of Endotheliase-2 (ET2) (human) (UniProt Q9BYE2). Description: continuous in vitro enzyme assay on rET2, Fab.
For test [2] the target is unchanged. Description: continuous in vitro enzyme assay, inhibition of ET2 protease activity by soluble Fab.
Test [3] shares this target. The test is described as follows: continuous in vitro enzyme assay on rET2, IgG1.

These results are taken from patent US20080019962A1.

Sequence of protease domain of Endotheliase-2 (ET2) (human) (Q9BYE2 other isoform, or with tags, fused parts or gaps limits assumed): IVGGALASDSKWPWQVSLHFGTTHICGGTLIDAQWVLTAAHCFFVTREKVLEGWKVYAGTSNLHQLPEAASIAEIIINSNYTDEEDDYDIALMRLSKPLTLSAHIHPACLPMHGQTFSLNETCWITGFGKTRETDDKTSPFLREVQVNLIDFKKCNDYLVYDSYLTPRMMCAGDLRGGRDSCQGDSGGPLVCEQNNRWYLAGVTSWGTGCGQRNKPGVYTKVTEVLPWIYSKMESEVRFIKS

B1: Fab D5 (Fab, V domains shown)
VH: EVQLLESGGGLVQPGGSLRLSCAASGFTFSRYDMHWVRQAPGKGLEWVSSISSSGGYTAYADSVKGRFTISRDNSKNTLYLQMNSLRAEDTAVYYCARGARGTSQGYWGQGTLVTVSS
VL: DIQMTQSPGTLSLSPGERGTLSCRASQFVSYSYLAWYQQKPGQAPRLLIYGASSRAKGIPDRFSGSGSGTDFTLTITRLEPEDFAVYYCQQYVPSVPWTFGQGTKVEVKR
Consider B1, for which the Ki in test [1] and in test [2] was 0.07 nM in each case.

B2: D5 IgG1 antibody (Fab D5 reformatted) (antibody, V domains shown)
VH: EVQLLESGGGLVQPGGSLRLSCAASGFTFSRYDMHWVRQAPGKGLEWVSSISSSGGYTAYADSVKGRFTISRDNSKNTLYLQMNSLRAEDTAVYYCARGARGTSQGYWGQGTLVTVSS
VL: DIQMTQSPGTLSLSPGERGTLSCRASQFVSYSYLAWYQQKPGQAPRLLIYGASSRAKGIPDRFSGSGSGTDFTLTITRLEPEDFAVYYCQQYVPSVPWTFGQGTKVEVKR
As for B2, the Ki – broadly, a dissociation constant, usually derived from enzyme kinetics or from competition with a known ligand – in test [3] turned out to be 0.086 nM.

B3: Fab D2 (Fab, V domains shown)
VH: EVQLLESGGGLVQPGGSLRLSCAASGFTFSRYRMYWVRQAPGKGLEWVSSISPSGGDTRYADSVKGRFTISRDNSQNTLYLQMNSLRAEDTAVYYCARGGPRGNKYYFDYWGQGTLVTVSS
VL: DIQMTQSPSSLSASVGDRVTITCRASQTIDNYLNWYQQKPGKAPKLVVYAASTLQTRVPSRFSGSGSGTDFTLTIDSLKPEDFATYFCQQGFSNPWTFGQGTTVAMIR
In the case of B3, the Ki in test [1] was determined as 0.095 nM; in test [2], 0.09 nM.

B4: C9 IgG1 antibody (Fab C9 reformatted) (antibody, V domains shown)
VH: EVQLLESGGGLVQPGGSLRLSCAASGFTFSRYPMFWVRQAPGKGLEWVSYISSSGGFTGYADSVKGRFTISRDNSKNTLYLQMNSLRAEDTAVYYCARGGPRGNKYYFDYWGQGTLVTVSS
VL: QSVLTQPASVSGSPGQSITISCTGTSSDVGHYNYVSWYQQHPGKAPKVMIYDVSSRPSGVSDRFSGSKSGNTASLAISGLQAEDEADYYCSSYTSGDTLYVFGTGTKVTVLG
For B4, the Ki in test [3] is 0.11 nM.

B5: Fab A2 (Fab, V domains shown)
VH: EVQLLESGGGLVQPGGSLRLSCAASGFTFSRYRMYWVRQAPGKGLEWVSSISPSGGDTRYADSVKGRFTISRDNSQNTLYLQMNSLRAEDTAVYYCARGGPRGNKYYFDYWGQGTLVTVSS
VL: DIQMTQSPSFLSAFVGDRVTITCRASQDIRSDLAWYQQTPGKAPKLLIYAASTLKDGAPSRFSGSGSGTEFTLTISSLHPEDLATYYCQHLNGHPAFGPGTKVNIQR
With B5, the Ki is 0.15 nM in test [1] and 0.16 nM in test [2].

B6: Fab C9 (Fab, V domains shown)
VH: EVQLLESGGGLVQPGGSLRLSCAASGFTFSRYPMFWVRQAPGKGLEWVSYISSSGGFTGYADSVKGRFTISRDNSKNTLYLQMNSLRAEDTAVYYCARGGPRGNKYYFDYWGQGTLVTVSS
VL: QSVLTQPASVSGSPGQSITISCTGTSSDVGHYNYVSWYQQHPGKAPKVMIYDVSSRPSGVSDRFSGSKSGNTASLAISGLQAEDEADYYCSSYTSGDTLYVFGTGTKVTVLG
As for B6, the inhibition constant Ki in test [1] was determined as 0.31 nM; in test [2], 0.26 nM.
